# Results: patent US11518805B2, “Binding inhibitor between TCTP dimer type IgE-dependent histamine releasing factor and receptor thereof, and use thereof” (EWHA UNIVERSITY—INDUSTRY COLLABORATION FOUNDATION, priority 2014, dated 2022)
# “Also recorded” adds a separate entry of the source.
# T1: Del-N11dTCTP (Rattus norvegicus, UniProt P63029)
# T1 construct: made in house
# T1 sequence (P63029 11-172 limits assumed): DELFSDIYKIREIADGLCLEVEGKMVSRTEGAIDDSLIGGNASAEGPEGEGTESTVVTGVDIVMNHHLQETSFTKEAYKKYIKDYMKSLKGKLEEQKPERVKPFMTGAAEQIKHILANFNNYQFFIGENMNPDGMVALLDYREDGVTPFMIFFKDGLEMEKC
# How the values were obtained:
# [1] = biological target: T1, Del-N11dTCTP; assay: Inhibition of Del-N11dTCTP-mediated IL-8 secretion by polyclonal antibodies recognizing FL and H2 domains in BEAS-2B cells; type: cell-based; set-up: dose or concentration left out as unconfirmed; settings: 20 hours
# Description: The inhibitory effect on Del-N11dTCTP-mediated IL-8 secretion by the antibody recognizing FL and H2 domains constructed in Example 6 of the invention was investigated by treating the antibody to BEAS-2B cells.
# Particularly, BEAS-2B cells were treated with anti-FL antibody and ani-H2 antibody at different concentrations. Then, Del-N11dTCTP-induced IL-8 secretion was compared. The BEAS-2B cells cultured in a 48-well plate were washed with 1% penicillin-streptomycin/BEBM (Lonza) twice, followed by serum starvation for 7 hours. The antibody diluted in PBS at the concentrations of 1 and 10 ng/ml was reacted with 70 μM Del-N11dTCTP at 37° C. for 2 hours. The reaction mixture was treated to the cells above. 20 hours later, the supernatant was obtained and the released IL-8 therein was quantified by ELISA.
# [2] = biological target: T1, Del-N11dTCTP; assay: Inhibition of Del-N11dTCTP-mediated IL-8 secretion by polyclonal antibody recognizing C-terminus domain in BEAS-2B cells; type: cell-based; settings: Del-N11dTCTP 1 μg/mL, 20 hours
# Description: BEAS-2B cells were treated with the antibody recognizing C-terminus domain constructed in Example 8 in order to investigate whether or not the antibody could inhibit the Del-N11dTCTP-mediated IL-8 secretion.
# Particularly, BEAS-2B cells were treated with Del-N11dTCTP (1 μg/mL) by the same manner as described in Experimental Example 4. At this time, the antibody diluted in PBS at the concentration of 40 nM was mixed with 1 μg/mL of Del-N11dTCTP at room temperature, followed by reaction for 10 minutes. The reaction mixture was treated to the cells above. 20 hours later, the supernatant was obtained and the separated IL-8 therein was quantified by ELISA.
# [3] = system: BEAS-2B cells; assay: IL-8 secretion by f-TCTP, Δ-dTCTP and Del-N11dTCTP in BEAS-2B cells; type: cell-based; settings: protein at 1, 5 or 10 μg/ml, 24 hours, ELISA
# Description: (§1) To investigate the IL-8 and GM-CSF secretory activity of f-TCTP, Δ-dTCTP, and Del-N11dTCTP in BEAS-2B cells, the present inventors compared the activity of f-TCTP, Δ-dTCTP, and Del-N11dTCTP by measuring the secretion of IL-8 in BEAS-2B cells.
# (§2) Particularly, BEAS-2B cells were cultured in a 48-well plate until the confluency reached to 70%. Then, the cells were washed with 1% penicillin-streptomycin/BEBM (Clonetics) twice. Each recombinant protein of the Δ-dTCTP separated in Example 1 of the invention, and the f-TCTP and Del-N11dTCTP constructed by the method described in Korean Patent Application No. 2006-0007663 was added thereto at the concentration of 1 μg/ ? , 5 μg/ ? , or 10 μg/ ? 24 hours later, the supernatant was obtained and the released IL-8 and GM-CSF were quantified by ELISA.
# [4] = system: dTBP2 (dTCTP binding peptide 2); assay: Affinity of TCTP proteins to immobilized biotinylated dTBP2 (ELISA); settings: biotinylated dTBP2 0.01-10 μm on streptavidin plate; protein 0.2 μg/ml; ELISA 450/570 nm
# Description: To investigate the affinity to dTBP2 of f-TCTP, Δ-dTCTP, and Del-N11dTCTP of the present invention, biotin was conjugated to the COOH-terminus of dTBP2 known to bind to HRF, followed by purification. The purified protein was immobilized in the plastic well coated with streptavidin, to which f-TCTP, Δ-dTCTP, and Del-N11dTCTP were added. Then, the binding strength of each protein was investigated.
# Particularly, 50 ? of the biotinylated dTBTP2 dissolved in a buffer (TBS [25 mM Tris, 150 mM NaCl, pH 7.2], 0.1% BSA, 0.05% Tween-20) at different concentrations of 0.01, 0.1, 1, and 10 μm was added to Reacti-Bind Streptavidin Coated Polystyrene Plates (PIERCE), followed by reaction at room temperature for 2 hours. The plate was washed with a washing buffer three times. Each of f-TCTP, Δ-dTCTP, and Del-N11dTCTP was dissolved in TBS at the concentration of 0.2 μg/ ? . 60 ? of the mixture was added to each well of the plate, followed by reaction for 1 hour. The plate was washed with a washing buffer three times. 100 ? of anti-HRF rabbit antibody (Bio-Rad) diluted in a buffer (1:2000) was added to each well of the plate, which stood at room temperature for 30 minutes. The plate was washed with a washing buffer three times and with TBS once, to which HRP-conjugated anti-rabbit antibody (1:2000) was added (100 ? /well), which stood at room temperature for 30 minutes. The plate was washed with a washing buffer three times and with TBS once, to which […] (PIERCE), the peroxydase substrate solution, was added (100 ? /well). Color development was measured at 450 nm and 570 nm using an ELISA reader (Bio-Rad), and affinity was determined by the difference.
# [5] = system: BEAS-2B cells; assay: GM-CSF secretion by f-TCTP, Δ-dTCTP and Del-N11dTCTP in BEAS-2B cells; type: cell-based; settings: protein at 1, 5 or 10 μg/ml, 24 hours, ELISA
# Description: as §1, §2
molecule,measurement,setting,value
"Del-N11dTCTP: dimer form of amino terminal-deleted TCTP, active HRF form (protein, UniProt P13693 12-172, looked up, fragment, dimer) EMFSDIYKIREIADGLCLEVEGKMVSRTEGNIDDSLIGGNASAEGPEGEGTESTVITGVDIVMNHHLQETSFTKEAYKKYIKDYMKSIKGKLEEQRPERVKPFMTGAAEQIKHILANFKNYQFFIGENMNPDGMVALLDYREDGVTPYMIFFKDGLEMEKC","IL-8 secretion, Del-N11dTCTP alone",[1],increased
same,"IL-8 secretion, PBS together with Del-N11dTCTP",[2],increased
same,secretion of IL-8,[3],more than f-TCTP and Δ-dTCTP could do; also recorded: superior to f-TCTP and Δ-dTCTP
same,affinity to dTBP2,[4],higher affinity to dTBP2 than f-TCTP or Δ-dTCTP; also recorded: higher dTBP2 affinity than f-TCTP and Δ-dTCTP
same,secretion of GM-CSF,[5],more than f-TCTP and Δ-dTCTP could do; also recorded: superior to f-TCTP and Δ-dTCTP
